# B1: 乙型脑炎病毒鼠源性单克隆抗体2G1 (antibody, V domains shown)
# VH: DVQLQESGLDRVKPSQSLSLTCTVTGYSIISGYSWHWIRQFPGKKLEWMGYIHYSGSATYSPSLKSRISITRDTSKNQFFLQLNSVTTEDTATFYCARGDGSSPYYGMDHWGQGTSVTVSS
# VL: DIVLTQSPPSLAVSLGQRATISCRASESVEYSGTGLIHWYQQKPGQPPKLLIYAASSVESGVPARFSGSGSGTDFSLNIHPVEDDDLALYFCQQSRKLPWTFGGGSKLEINR
# What was measured:
# [1] = target: JEV病毒抗原 (JEV Beijing-1株) (Japanese encephalitis virus, Beijing-1 strain); assay: cell-based or functional assay
# [2] = target: JEV包膜E蛋白 (Japanese encephalitis virus (strain not stated)); assay: SPR, Biacore T200; 2G1 captured on CM5 chip, E protein as analyte
binder,measurement,setting,value
B1,半数中和浓度(Neut50),[1],0.149 µg/mL
same,Kd,[2],16.5 nM
same,koff,[2],7.06e-05 s⁻¹
same,kon,[2],4270 M⁻¹ s⁻¹
